Paper PMC9482650, “Quantitative fragmentomics allow affinity mapping of interactomes” (Nature Communications, 2022)

T1: MPDZ_7, O75970
T1 sequence (O75970 1146-1253, limits assumed, looked up): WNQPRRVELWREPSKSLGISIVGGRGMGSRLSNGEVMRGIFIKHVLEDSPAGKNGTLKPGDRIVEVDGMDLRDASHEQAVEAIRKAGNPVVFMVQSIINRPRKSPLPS

T2: MPDZ_3, O75970
T2 sequence (O75970 372-473, limits assumed, looked up): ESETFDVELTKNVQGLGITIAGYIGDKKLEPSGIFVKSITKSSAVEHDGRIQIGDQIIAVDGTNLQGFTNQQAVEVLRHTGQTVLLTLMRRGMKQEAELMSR

T3: MPDZ_11, O75970
T3 sequence (O75970 1720-1817, limits assumed, looked up): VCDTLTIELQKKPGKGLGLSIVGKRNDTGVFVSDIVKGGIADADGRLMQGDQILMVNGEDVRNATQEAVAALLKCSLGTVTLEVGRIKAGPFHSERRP

T4: SHANK2, Q9UPX8
T4 sequence (Q9UPX8 621-730, limits assumed, looked up): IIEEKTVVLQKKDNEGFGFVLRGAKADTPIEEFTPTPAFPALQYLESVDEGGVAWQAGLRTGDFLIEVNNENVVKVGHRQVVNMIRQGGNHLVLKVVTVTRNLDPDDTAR

T5: MPP5, Q8N3R9
T5 sequence (Q8N3R9 251-346, limits assumed, looked up): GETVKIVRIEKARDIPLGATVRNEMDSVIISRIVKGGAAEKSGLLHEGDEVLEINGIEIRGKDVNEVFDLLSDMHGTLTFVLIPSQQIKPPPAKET

T6: PDZD2_6, O15018
T6 sequence (O15018 2745-2839, limits assumed, looked up): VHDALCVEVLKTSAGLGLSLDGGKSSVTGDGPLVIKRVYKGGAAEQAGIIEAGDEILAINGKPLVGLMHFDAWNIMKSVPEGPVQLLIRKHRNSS

T7: SHANK3, Q9BYB0
T7 sequence (Q9BYB0 641-750, limits assumed, looked up): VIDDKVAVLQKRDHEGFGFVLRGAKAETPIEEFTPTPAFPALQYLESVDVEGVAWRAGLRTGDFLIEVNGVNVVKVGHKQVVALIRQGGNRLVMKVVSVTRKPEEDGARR

T8: SYNPO2L, Q9H987
T8 sequence (Q9H987 1-98, limits assumed, looked up): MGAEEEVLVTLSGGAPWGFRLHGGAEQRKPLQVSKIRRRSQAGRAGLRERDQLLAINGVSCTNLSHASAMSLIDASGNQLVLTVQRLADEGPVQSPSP

T9: PDZD7_2, Q9H5P4
T9 sequence (Q9H5P4 205-303, limits assumed, looked up): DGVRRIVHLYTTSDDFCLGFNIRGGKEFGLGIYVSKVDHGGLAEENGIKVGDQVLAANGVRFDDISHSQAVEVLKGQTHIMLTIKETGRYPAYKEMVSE

T10: PTPN13_5, Q12923
T10 sequence (Q12923 1877-1975, limits assumed, looked up): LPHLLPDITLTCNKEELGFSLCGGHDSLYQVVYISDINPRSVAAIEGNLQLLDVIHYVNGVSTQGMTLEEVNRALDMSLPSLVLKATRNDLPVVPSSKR

T11: PDZD8, Q8NEN9
T11 sequence (Q8NEN9 361-459, limits assumed, looked up): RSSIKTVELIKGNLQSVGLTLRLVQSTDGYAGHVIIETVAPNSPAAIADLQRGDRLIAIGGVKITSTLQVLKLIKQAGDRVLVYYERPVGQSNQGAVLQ


Assays:
Assay in all cases: holdup assay
Parameters in all cases: key: below the threshold = too weak to quantify, mostly under pKd 3.1 to 4
Details in all cases: plain residues with an end cap or a label only (N-terminal biotin on a linker: ttds)
GIPC3, Q8TF64 = biological target: GIPC3, Q8TF64
MAGI1_3, Q96QZ7 = biological target: MAGI1_3, Q96QZ7
PREX1_1, Q8TCU6 = biological target: PREX1_1, Q8TCU6
CNKSR3, Q6P9H4 = biological target: CNKSR3, Q6P9H4
MPDZ_7, O75970 = biological target: T1, MPDZ_7, O75970
MPDZ_3, O75970 = biological target: T2, MPDZ_3, O75970
MPDZ_11, O75970 = biological target: T3, MPDZ_11, O75970
SHANK2, Q9UPX8 = biological target: T4, SHANK2, Q9UPX8
MPP5, Q8N3R9 = biological target: T5, MPP5, Q8N3R9
PARD3B_3, Q8TEW8 = biological target: PARD3B_3, Q8TEW8
RGS3, P49796-9 = biological target: RGS3, P49796-9
DLG5_2, Q8TDM6 = biological target: DLG5_2, Q8TDM6
MAST3, O60307 = biological target: MAST3, O60307
MAGI3_6, Q5TCQ9 = biological target: MAGI3_6, Q5TCQ9
PDZRN4_2, Q6ZMN7 = biological target: PDZRN4_2, Q6ZMN7
PDZD2_6, O15018 = biological target: T6, PDZD2_6, O15018
SHANK3, Q9BYB0 = biological target: T7, SHANK3, Q9BYB0
SYNPO2L, Q9H987 = biological target: T8, SYNPO2L, Q9H987
RIMS2, Q9UQ26 = biological target: RIMS2, Q9UQ26
PDZD7_2, Q9H5P4 = biological target: T9, PDZD7_2, Q9H5P4
GRIP2_2, Q9C0E4 = biological target: GRIP2_2, Q9C0E4
SDCBP_1, O00560 = biological target: SDCBP_1, O00560
SCRIB_4, Q14160 = biological target: SCRIB_4, Q14160
PTPN13_5, Q12923 = biological target: T10, PTPN13_5, Q12923
PARD3_1, Q8TEW0 = biological target: PARD3_1, Q8TEW0
PDZD8, Q8NEN9 = biological target: T11, PDZD8, Q8NEN9

PDZRN4_2, Q6ZMN7, sequence (Q6ZMN7 389-498): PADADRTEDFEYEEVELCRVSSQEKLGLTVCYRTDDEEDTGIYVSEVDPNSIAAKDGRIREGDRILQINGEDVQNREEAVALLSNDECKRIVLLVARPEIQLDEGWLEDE
PREX1_1, Q8TCU6, sequence (Q8TCU6 608-718): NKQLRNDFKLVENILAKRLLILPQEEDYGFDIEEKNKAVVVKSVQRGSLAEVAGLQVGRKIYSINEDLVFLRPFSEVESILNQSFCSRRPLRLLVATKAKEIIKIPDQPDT
SCRIB_4, Q14160, sequence (Q14160 1095-1204): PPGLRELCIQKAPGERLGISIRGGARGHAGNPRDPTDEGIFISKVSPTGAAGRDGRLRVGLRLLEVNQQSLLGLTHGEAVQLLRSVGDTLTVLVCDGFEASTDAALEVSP
DLG5_2, Q8TDM6, sequence (Q8TDM6 714-800): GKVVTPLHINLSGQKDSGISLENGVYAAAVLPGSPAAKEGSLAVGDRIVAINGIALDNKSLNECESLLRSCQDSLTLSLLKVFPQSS
GIPC3, Q8TF64, sequence (Q8TF64 107-202): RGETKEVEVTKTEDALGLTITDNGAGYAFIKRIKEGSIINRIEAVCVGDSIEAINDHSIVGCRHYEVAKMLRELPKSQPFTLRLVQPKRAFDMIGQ
SDCBP_1, O00560, sequence (O00560 111-198): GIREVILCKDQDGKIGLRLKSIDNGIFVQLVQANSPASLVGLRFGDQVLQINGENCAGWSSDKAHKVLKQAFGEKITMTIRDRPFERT
PARD3B_3, Q8TEW8, sequence (Q8TEW8 490-594): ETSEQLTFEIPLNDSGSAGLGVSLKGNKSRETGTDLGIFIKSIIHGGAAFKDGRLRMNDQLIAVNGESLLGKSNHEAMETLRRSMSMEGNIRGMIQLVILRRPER
PARD3_1, Q8TEW0, sequence (Q8TEW0 264-372): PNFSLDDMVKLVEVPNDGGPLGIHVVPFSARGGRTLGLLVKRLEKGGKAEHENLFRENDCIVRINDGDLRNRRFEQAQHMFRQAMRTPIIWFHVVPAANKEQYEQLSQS
GRIP2_2, Q9C0E4, sequence (Q9C0E4 137-245): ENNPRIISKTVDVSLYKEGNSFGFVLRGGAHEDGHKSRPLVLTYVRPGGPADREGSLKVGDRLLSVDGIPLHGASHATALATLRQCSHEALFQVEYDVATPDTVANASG
MAGI1_3, Q96QZ7, sequence (Q96QZ7 638-725): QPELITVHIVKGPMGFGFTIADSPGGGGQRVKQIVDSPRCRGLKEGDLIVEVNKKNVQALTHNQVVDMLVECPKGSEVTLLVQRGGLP
RIMS2, Q9UQ26, sequence (Q9UQ26 637-758): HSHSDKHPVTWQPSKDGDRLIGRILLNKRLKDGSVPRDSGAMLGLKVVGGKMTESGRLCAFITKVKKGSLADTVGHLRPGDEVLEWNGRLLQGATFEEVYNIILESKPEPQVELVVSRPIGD
RGS3, P49796-9, sequence (P49796 other isoform, or with tags, fused parts or gaps): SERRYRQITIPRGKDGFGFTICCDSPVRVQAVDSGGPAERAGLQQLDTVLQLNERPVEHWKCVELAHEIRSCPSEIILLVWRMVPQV
MAGI3_6, Q5TCQ9, sequence (Q5TCQ9 1014-1103): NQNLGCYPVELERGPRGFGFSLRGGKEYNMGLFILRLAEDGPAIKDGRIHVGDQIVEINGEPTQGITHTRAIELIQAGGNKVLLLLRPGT
CNKSR3, Q6P9H4, sequence (Q6P9H4 203-303): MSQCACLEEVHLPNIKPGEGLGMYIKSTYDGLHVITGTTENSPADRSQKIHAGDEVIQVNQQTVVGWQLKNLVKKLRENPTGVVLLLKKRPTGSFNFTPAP
MAST3, O60307, sequence (O60307 945-1048): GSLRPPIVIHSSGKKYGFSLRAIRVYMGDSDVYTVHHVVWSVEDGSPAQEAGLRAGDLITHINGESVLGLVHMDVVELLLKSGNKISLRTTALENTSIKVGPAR

Binder	pKd (GIPC3, Q8TF64)	pKd (MAGI1_3, Q96QZ7)	pKd (PREX1_1, Q8TCU6)	pKd (CNKSR3, Q6P9H4)	pKd (MPDZ_7, O75970)	pKd (MPDZ_3, O75970)	pKd (MPDZ_11, O75970)	pKd (SHANK2, Q9UPX8)	pKd (MPP5, Q8N3R9)	pKd (PARD3B_3, Q8TEW8)	pKd (RGS3, P49796-9)	pKd (DLG5_2, Q8TDM6)	pKd (MAST3, O60307)	pKd (MAGI3_6, Q5TCQ9)	pKd (PDZRN4_2, Q6ZMN7)	pKd (PDZD2_6, O15018)	pKd (SHANK3, Q9BYB0)	pKd (SYNPO2L, Q9H987)	pKd (RIMS2, Q9UQ26)	pKd (PDZD7_2, Q9H5P4)	also measured
QSARYRDTEL [TJP2, Q9UDY2]	below the threshold	below the threshold	below the threshold	below the threshold	below the threshold	below the threshold	below the threshold	below the threshold	below the threshold	below the threshold	below the threshold	below the threshold	below the threshold	4.72	below the threshold	below the threshold	below the threshold	below the threshold	below the threshold	below the threshold	pKd (GRIP2_2, Q9C0E4): below the threshold; pKd (SDCBP_1, O00560): below the threshold; pKd (SCRIB_4, Q14160): below the threshold; pKd (PTPN13_5, Q12923): below the threshold; pKd (PARD3_1, Q8TEW0): below the threshold; pKd (PDZD8, Q8NEN9): below the threshold
STLTIFETAL [ABCC4, O15439]	4.21	below the threshold	below the threshold	below the threshold	5.01	4.18	below the threshold	4.85	below the threshold	below the threshold	below the threshold	below the threshold	4.29	4.21	below the threshold	below the threshold	5.54	below the threshold	below the threshold	4.54	pKd (GRIP2_2, Q9C0E4): below the threshold; pKd (SDCBP_1, O00560): below the threshold; pKd (SCRIB_4, Q14160): 4.29; pKd (PTPN13_5, Q12923): below the threshold; pKd (PARD3_1, Q8TEW0): below the threshold; pKd (PDZD8, Q8NEN9): below the threshold
